Reference: publication PMC13226650, “Non-decameric NLRP3 reveals a TGN/MTOC-distal pathway of inflammasome activation” (Nature Communications, 2026)

What was measured:
[1] = target: the molecule itself; test: SEC + other: negative-stain EM; Superose 6 Increase 10/300 GL in 50 mM HEPES pH 7.5, 150 mM NaCl, 0.5 mM TCEP, 10 mM MgCl2, 1 mM ADP; elution against a gel filtration standard; SEC fractions of peak 2 imaged after 2 % uranyl acetate stain
[2] = target: the molecule itself; test: SEC-MALS; peak 2 fractions (C7-D4) pooled, 1.3 mg/mL; Superose 6 Increase 10/300 GL in lysis buffer (50 mM HEPES pH 7.5, 150 mM NaCl, 0.5 mM TCEP, 10 mM MgCl2, 1 mM ADP); 0.5 mL/min

Protein	binding result [1]	stoichiometry N [2]
MBP-NLRP3(Δexon3) + GSGAGG linker (natural protein, human, NLRP3, human, UniProt Q96P20, residues 3-94 (before the deleted exon 3 linker 95-134); short flexible linker that replaces residues 95-134; NLRP3, human, UniProt Q96P20, residues 135-1036 (after the deleted exon 3 linker 95-134); also called ∆95-134 + linker (GSGAGG); source: baculovirus-infected Sf9 insect cells, purified (MBP-trap, SEC on Superose 6 Increase); not shown: MBP, N-terminal, kept) MASTRCKLARYLEDLEDVDLKKFKMHLEDYPPQKGCIPLPRGQTEKADHVDLATLMIDFNGEEKAWAMAVWIFAAINRRDLYEKAKRDEPKWGSGAGGDYRKKYRKYVRSRFQCIEDRNARLGESVSLNKRYTRLRLIKEHRSQQEREQELLAIGKTKTCESPVSPIKMELLFDPDDEHSEPVHTVVFQGAAGIGKTILARKMMLDWASGTLYQDRFDYLFYIHCREVSLVTQRSLGDLIMSCCPDPNPPIHKIVRKPSRILFLMDGFDELQGAFDEHIGPLCTDWQKAERGDILLSSLIRKKLLPEASLLITTRPVALEKLQHLLDHPRHVEILGFSEAKRKEYFFKYFSDEAQARAAFSLIQENEVLFTMCFIPLVCWIVCTGLKQQMESGKSLAQTSKTTTAVYVFFLSSLLQPRGGSQEHGLCAHLWGLCSLAADGIWNQKILFEESDLRNHGLQKADVSAFLRMNLFQKEVDCEKFYSFIHMTFQEFFAAMYYLLEEEKEGRTNVPGSRLKLPSRDVTVLLENYGKFEKGYLIFVVRFLFGLVNQERTSYLEKKLSCKISQQIRLELLKWIEVKAKAKKLQIQPSQLELFYCLYEMQEEDFVQRAMDYFPKIEINLSTRMDHMVSSFCIENCHRVESLSLGFLHNMPKEEEEEEKEGRHLDMVQCVLPSSSHAACSHGLVNSHLTSSFCRGLFSVLSTSQSLTELDLSDNSLGDPGMRVLCETLQHPGCNIRRLWLGRCGLSHECCFDISLVLSSNQKLVELDLSDNALGDFGIRLLCVGLKHLLCNLKKLWLVSCCLTSACCQDLASVLSTSHSLTRLYVGENALGDSGVAILCEKAKNPQCNLQKLGLVNSGLTSVCCSALSSVLSTNQNLTHLYLRGNTLGDKGIKLLCEGLLHPDCKLQVLELDNCNLTSHCCWDLSTLLTSSQSLRKLSLGNNDLGDLGVMMFCEVLKQQSCLLQNLGLSEMYFNYETKSALETLQEEKPELTVVFEPSW	binds	–
MBP-NLRP3(Δexon3) (natural protein, human, UniProt Q96P20 3-1036, looked up, NLRP3, human, UniProt Q96P20, residues 3-1036 with the linker region encoded by exon 3 (residues 95-134) deleted; a TEV site stands between MBP and NLRP3; Calculated mass of the MBP-NLRP3(Δexon3) monomer is printed as 154.8 kDa; also called MBP-NLRP3 (∆95-134); source: baculovirus-infected Sf9 insect cells, purified (MBP-trap, SEC on Superose 6 Increase); not shown: MBP, N-terminal, kept) MASTRCKLARYLEDLEDVDLKKFKMHLEDYPPQKGCIPLPRGQTEKADHVDLATLMIDFNGEEKAWAMAVWIFAAINRRDLYEKAKRDEPKWDYRKKYRKYVRSRFQCIEDRNARLGESVSLNKRYTRLRLIKEHRSQQEREQELLAIGKTKTCESPVSPIKMELLFDPDDEHSEPVHTVVFQGAAGIGKTILARKMMLDWASGTLYQDRFDYLFYIHCREVSLVTQRSLGDLIMSCCPDPNPPIHKIVRKPSRILFLMDGFDELQGAFDEHIGPLCTDWQKAERGDILLSSLIRKKLLPEASLLITTRPVALEKLQHLLDHPRHVEILGFSEAKRKEYFFKYFSDEAQARAAFSLIQENEVLFTMCFIPLVCWIVCTGLKQQMESGKSLAQTSKTTTAVYVFFLSSLLQPRGGSQEHGLCAHLWGLCSLAADGIWNQKILFEESDLRNHGLQKADVSAFLRMNLFQKEVDCEKFYSFIHMTFQEFFAAMYYLLEEEKEGRTNVPGSRLKLPSRDVTVLLENYGKFEKGYLIFVVRFLFGLVNQERTSYLEKKLSCKISQQIRLELLKWIEVKAKAKKLQIQPSQLELFYCLYEMQEEDFVQRAMDYFPKIEINLSTRMDHMVSSFCIENCHRVESLSLGFLHNMPKEEEEEEKEGRHLDMVQCVLPSSSHAACSHGLVNSHLTSSFCRGLFSVLSTSQSLTELDLSDNSLGDPGMRVLCETLQHPGCNIRRLWLGRCGLSHECCFDISLVLSSNQKLVELDLSDNALGDFGIRLLCVGLKHLLCNLKKLWLVSCCLTSACCQDLASVLSTSHSLTRLYVGENALGDSGVAILCEKAKNPQCNLQKLGLVNSGLTSVCCSALSSVLSTNQNLTHLYLRGNTLGDKGIKLLCEGLLHPDCKLQVLELDNCNLTSHCCWDLSTLLTSSQSLRKLSLGNNDLGDLGVMMFCEVLKQQSCLLQNLGLSEMYFNYETKSALETLQEEKPELTVVFEPSW	–	2
